Changes are numbered by the printed parent chain. Names may count otherwise. One block for each binder: values may come before it.
Legend:
[1] = target: T1, human CD22 (hCD22) expressed on the cell surface (human, UniProt P20273 20-847); experiment: BHK-CD22 cell ELISA
T1 construct: whole, on cells; Used as capture agent in the BHK-CD22 cell ELISA and as target in flow cytometry; also called BHK-CD22; hCD22 expressing CHO cells

[2] = target: hCD22 immobilised on a CM5 sensor chip (BIAcore ligand) (human, UniProt P20273 20-687, limits assumed); experiment: BIAcore 3000 SPR; hCD22 amine-coupled to CM5 chip, IgG injected; global 1:1 fit
Procedure: Binding affinity of HB22.7 and RHOv2ACD/RKA were determined on a BIAcore 3000 instrument (BIAcore, Inc., Uppsala, Sweden). The ligand, hCD22, was prepared at 50 nM in 10 mM NaOAc, pH4 buffer. It was injected onto an EDC/NHS-activated CM5 sensor chip (BIAcore, Inc. Uppsala, Sweden) using a standard immobilization protocol. Following this, any unreacted active ester moieties were quenched using 1M Et-NH2 (ethanolamine; coupling reagents purchased from BIAcore, Inc.). A total of 535 and 689 RUs hCD22 remained bound to two sensor chip surfaces used in these experiments. Separately, a blank surface was prepared on each sensor chip using the identical protocol (minus protein). The blank surfaces were used as a reference cell in the experiments, and served to correct for both non-specific binding and some housekeeping artifacts.
For the kinetic experiments, HB22.7 and RHOv2ACD/RKA were prepared as two dilution series, starting at 22 nM and 100 nM, then diluted three- and two-fold, respectively, down to final concentrations of 0.03 nM and 0.39 nM in HBS-EP buffer (BIAcore, Inc., consisting of the following: 10 mM HEPES buffer, pH7.4, 150 mM NaCl, 3 mM EDTA, and 0.005% P20). Each concentration of IgG was then injected over both the CD22 and reference cell surfaces, which are connected in series. Between injections, surfaces were regenerated with a 1-minute injection of 3M MgCl2.

[3] = target: T1, human CD22 (hCD22) expressed on the …; experiment: binding to BHK-hCD22 cells
Procedure: The ability of chHB227 and its humanized variants to bind hCD22 was assessed in a cell based CD22 binding assay utilizing BHK cells expressing cell-surface human CD22 as a capture agent. Untransfected BHK cells not expressing hCD22 served as a control for non-specific binding. The BHK and BHK-CD22 lines were grown in DMEM supplemented with 10% Fetal Clone I and antibiotics. G418/Geneticin (0.75 mg/ml) was also added to the growth medium for BHK-CD22 only. The standard NCI protocol was used for the binding assay.

- binding result [1]: binds
B1: antibody of chimeric HB22.7 heavy chain (chH) with HB227RKA light chain variable region (antibody, V domains shown)
VH: QVQLKESGPGLVAPSQSLSITCTVSGFSLSDYGVNWVRQIPGKGLEWLGIIWGDGRTDYNSALKSRLNISKDNSKSQVFLKMNSLKADDTARYYCARAPGNRAMEYWGQGTSVTVSS
VL: DIVMTQSPSSLSASVGDRVTITCKASQSVTNDVAWYQQKPGKAPKLLIYYASNRYTGVPSRFSGSGSGTDFTLTISSLQPEDFATYYCQQDYRSPWTFGGGTKVEIK
notes: Human IgG1/kappa, COS-7 supernatant; VL entry may include the DPK018 leader; also called chH+RKA

- Kd [2]: 22 nM
- koff [2]: 0.00069 s⁻¹
- kon [2]: 32000 M⁻¹ s⁻¹
B2: humanized anti-hCD22 antibody RHOv2ACD/RKA (antibody, V domains shown)
VH: QVQLEESGGGVVRPGRSLRLSCAASGFTFSDYGVNWIRQAPGKGLEWVTIIWGDGRTDYNSALKSRFTVSRNNSNNTLSLQMNSLTTEDTAVYYCVRAPGNRAMEYWGQGVLVTVSS
VL: B1 VL
modifications: Labelled with Alexa Fluor 488 or 647 in some flow cytometry assays; unlabelled IgG in the BIAcore runs.
notes: VH keeps only the D30S back mutation; Labelled with Alexa Fluor 488 or 647 in some flow cytometry assays; also called HB227RHOv2ACD + HB227RKA; RHOvACD/RKA

- binding result [3]: binds
B3: humanized antibody HB227RHOv2ABCD + HB227RKA (antibody, V domains shown)
VH: B2 VH with S30D
VL: B1 VL
notes: VH without back mutations; Human IgG1/kappa, COS-7 supernatant; also called RHOv2ABCD+RKA

- binding result [1]: binds
B4: humanized antibody HB227RHF + HB227RKC (antibody, V domains shown)
VH: QVQLQESGPALVKPTQTLTLTCTVSGFSLSDYGVNWIRQPPGKALEWLGIIWGDGRTDYNSALKSRLSISKDNSKNQVVLRMTNVDPVDTATYFCARAPGNRAMEYWGQGTVVTVSS
VL: DIVMTQSPSSLSASVGDRVTITCKASQSVTNDVAWYQQKPGKAPKLLIYYASNRYTGVPDRFSGSGYGTDFTLTISSLQPEDFATYFCQQDYRSPWTFGGGTKVEIKR
notes: Human IgG1/kappa, COS-7 supernatant; also called RHF+RKC; humanized (RHF+RKC) antibody
